Data: patent US20250026814A1 (UNIVERSITY OF CHICAGO, published 2025)

T1: MERS-CoV RBD WT (MERS-CoV, UniProt K9N5Q8 367-606)
T1 sequence: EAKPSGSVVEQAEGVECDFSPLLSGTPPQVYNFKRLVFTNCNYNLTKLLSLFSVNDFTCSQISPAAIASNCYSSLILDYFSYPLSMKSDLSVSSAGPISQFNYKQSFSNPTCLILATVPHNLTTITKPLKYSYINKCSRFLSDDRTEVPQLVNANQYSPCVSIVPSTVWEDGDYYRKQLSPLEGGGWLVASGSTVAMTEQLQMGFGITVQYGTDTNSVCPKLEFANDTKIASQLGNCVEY


Each binder was assayed against T1, MERS-CoV RBD WT (assay: ELISA).

| Binder | binding result |
| --- | --- |
| S728-430 (antibody, V domains shown) VH: EVQLVESGGGLIQPGGSLRLSCAASGFTVSSNYMSWVRQAPGKGLEWVSVIYSGGSTYYADSVKGRFTISRDNSKNTLYLQMNSLRAEDTAVYYCARTPRGSRRGAFDIWGQGTMVTVSS VL: not shown [S728-430, listing 1 of 2 here] | no binding (tested: 10 ug/ml top of dilution series) |
| S728-537 (antibody, V domains shown) VH: QVQLVQSGAEVKKPGASVKVSCKTSGYTFTGFYLHWLRQAPGQGLEWMGRINPNTGDTDYAQKFQGRVTMTRDTSISTAYMELSRLRADDTAVYYCARTPGQTRQLFVGTNVLDVWGQGTMVTVSS VL: DIQMTQSPSSVSASVGDRVTITCRASQGISSWLAWYQQKPGKAPKVLIFAASSLQSGVPSRFSGSGSGTDFTLTITSLQPEDFATYFCQQTNSFPPTFGGGTKVEIK [S728-537, listing 1 of 2 here] | no binding (tested: 10 ug/ml top of dilution series) |
| S728-1690 (antibody, V domains shown) VH: QVQLVQSGAEVVKPGSSVKVSCKASGGTFTRYAISWVRQAPGQGPEWMGRIIPMFGIANYAQRFQGRVTMTADKSTSTAYMELSSLRSEDTAVYYCATCQYYYDSSGYGSLDYWGQGTQVTVSS VL: EIVLTQSPGTLSLSPGERVTLSCRASQSISSNFLAWYQQKPGQAPRLLISGASSRATGIPDRFSGGGSGTDFTLTISRLEPEDFAVYYCQQYHSSPRTFGQGTKVEIK | no binding (tested: 10 ug/ml top of dilution series) |

The binders below were run against T2, S1 monomeric WT (SinoBiological) (SARS-CoV-2, UniProt P0DTC2 16-685) (assay: ELISA).
T2 construct: domain: S1

| Binder | binding result |
| --- | --- |
| S728-1981 (antibody, V domains shown) VH: QVQLVQSGAEVKKPGASVKVSCKTSGYTFTNYFMHWVRQAPGQGLEWMGIINPSGGSASYAQKFQGRITMTSDTSTSTVYMELSSLRSEDTAVYYCAREDIIVVVPARPLDYWGHGTLVTVSS VL: EIVLTQSPATLSLSPGERATLSCRASQSFSNYLAWYQQKPGQAPRLLIYDASNRATGIPARFSGSGSGTDFTLTISSLEPEDFAVYYCQQRSNWPPLLTFGGGTKVEIK | binds |
| S728-2036 (antibody, V domains shown) VH: QVHLVQSGAEIRKPGASVMVSCKASGYTFTDYYIHWVRQAPGQGLEWMGWINPNSGGTNYAQKFQGRVTMTRDTSIRTAYMELSRLRSDDAAVYYCAREGISMLRGVRSWFDPWGQGTLVTVSS VL: QSALTQPASVSGSPGQSITISCTGTSSDVGSYNLVSWYQQHPGKVPKLIIYEVTKRPSGVSNRFSGSKSGNTASLTISGLQTEDEADYYCCSYAGFSAWVFGGGTKLTVL | binds |

What follows are binders tested against SARS-CoV-1 RBD WT (SARS-CoV-1, UniProt P59594 306-527) (assay: ELISA).

| Binder | binding result |
| --- | --- |
| S24-1384 (antibody, V domains shown) VH: EVQLVESGGGLVQPGGSLRLSCAVSGFTFSSYSMNWVRQAPGKGLEWVSYISSSSSIIYYADSVKGRFTISRDNAKNSLYLQMNSLRAEDTAVYYCARDFLDYSRSYSYGMDVWGQGTTVTVSS VL: SYVLTQPPSVSVAPGQTARITCGGDNIGSKNVHWYQQKPGQAPVLVVFDDSDRPSGIPERFSGSNSGNTATLTISRVEAGDEADYYCQVWDSSSDHYVVFGGGTKLTVL | binds |
| S144-69 (antibody, V domains shown) VH: EVQLVQSGAEVKKPGESLKISCKGSGYSFTSYWIGWVRQMPGKGLEWMGIIYPGDSDTRYSPSFQGQVTISADKSITTAYLQWSSLKASDTAMYYCARTQTTNWFDSWGQGTLVTVSS VL: DIQMTQSPSTLSVSVGDRVTITCRASQSVSSWLAWYQQKPGKAPKLLIYDASSLESGVPSRFSGSGSGTEFTLTISSLQPDDFATYYCQQYNSFYTFGQGTKLEIK | binds |
| S144-466 (antibody, V domains shown) VH: EVQLVQSGAEVKKPGESLKISCKGSGYRFTRYWIGWVRQMPGKGLEWMGIIYLGDSETRYSPSFQGQVTISADNSISTAYLQWSSLKASDTAMYYCARSSNWNYGDYWGQGTLVTVSS VL: DIQMTQSPSTLSASVGDRVTITCRASQSITSWLAWYQQKSGKAPKLLIYDASSLESGVPSRFSGSGSGTEFTLTISSLQPDDFATYYCQQYNSYPWTFGQGTKVEIK | binds |
| S144-509 (antibody, V domains shown) VH: EVQLVQSGAEVKKPGESLKISCKGSAYTFTTYWIGWVRQMPGKGLEWMGIIYPGDSDTRYSPSFQGQVTISADKSISTAYLQWSSLKASDTAMYYCARLLLVAGPFDYWGQGTLVTVSS VL: not shown | binds |
| S564-152 (antibody, V domains shown) VH: QVQLVESGGGVVQPGRSLRLSCAASGFTFSYYGMHWVRQAPGKGLEWVAVIWYDGSNKHYADSVKGRFTISRDNSKNTLYLQMNSLRAEDTAVYYCAKNAAPYCSGGSCYGTYFDYWGQGTLVTVSS VL: DIQMTQSPSSLSASVGDRVTITCQASQDINNYLNWYQQKPGKAPKLLIYDASNLETGVPSRFSGSGSGTDFTFTISSLQPEDIATYYCQQYDNVPPHTFGQGTKLEIK | binds |
| S728-430 (antibody, V domains shown) VH: EVQLVESGGGLIQPGGSLRLSCAASGFTVSSNYMSWVRQAPGKGLEWVSVIYSGGSTYYADSVKGRFTISRDNSKNTLYLQMNSLRAEDTAVYYCARTPRGSRRGAFDIWGQGTMVTVSS VL: not shown [S728-430, listing 1 of 2 here] | no binding (tested: 10 ug/ml top of dilution series) |
| S728-537 (antibody, V domains shown) VH: QVQLVQSGAEVKKPGASVKVSCKTSGYTFTGFYLHWLRQAPGQGLEWMGRINPNTGDTDYAQKFQGRVTMTRDTSISTAYMELSRLRADDTAVYYCARTPGQTRQLFVGTNVLDVWGQGTMVTVSS VL: DIQMTQSPSSVSASVGDRVTITCRASQGISSWLAWYQQKPGKAPKVLIFAASSLQSGVPSRFSGSGSGTDFTLTITSLQPEDFATYFCQQTNSFPPTFGGGTKVEIK [S728-537, listing 1 of 2 here] | no binding (tested: 10 ug/ml top of dilution series) |
| S728-1690 (antibody, V domains shown) VH: QVQLVQSGAEVVKPGSSVKVSCKASGGTFTRYAISWVRQAPGQGPEWMGRIIPMFGIANYAQRFQGRVTMTADKSTSTAYMELSSLRSEDTAVYYCATCQYYYDSSGYGSLDYWGQGTQVTVSS VL: EIVLTQSPGTLSLSPGERVTLSCRASQSISSNFLAWYQQKPGQAPRLLISGASSRATGIPDRFSGGGSGTDFTLTISRLEPEDFAVYYCQQYHSSPRTFGQGTKVEIK | no binding (tested: 10 ug/ml top of dilution series) |
| S728-1157 (antibody, V domains shown) VH: EVQLVESGGGLVQPGGSLRLSCAASGLLVSRNYMNWVRQAPGKGLEWVSIIYSGGSTFYADSVEGRFTISRDESKNTLYLQMNSLRTDDTAVYYCARDLSDYGGIDCWGQGTLVTVSS VL: YELTQPLSVSMALGQTARISCGGDNVGSQNVHWYQQRPGQAPVLVIYRDSNRPSGIPERFSGSKSGNTATLTISRAQAGDEADYYCQVWDSSTVAFGGGTKLTVL [S728-1157, listing 1 of 2 here] | no binding |

These binders were tested against T3, SARS-CoV-2 spike receptor-binding domain (RBD), WT (SARS-CoV-2, UniProt P0DTC2 319-541) (assay: epitope specificity column of the table of RBD-reactive mAbs (ELISA)).
T3 construct: domain: RBD

| Binder | binding result |
| --- | --- |
| S728-209 (antibody, V domains shown) VH: QITLKESGPTLVKPTQTLTLTCTLSGFSLSTSGVSVGWIRQPPGKALEWLAVIFWDDDKRYNPSLKSRLTIAKDTSKSQVVLTMTNLDPVDTGTYYCVSGSSYYYYYYMDVWGKGTTVTVSS VL: DIQMTQSPSSVSASIGDRVTITCRASQDISTWLAWYQQKPGRAPNLLIYGASSLQSGVPSRFSGSGSGTDFTLTISSLQPEDFATYYCQQATSFPLTFGGGTKVEIK | binds |
| S728-369 (antibody, V domains shown) VH: QVQLQESGPGLVKPSQTLSLTCSVSGGSISSGGYYWSWIRQHPGKGLEWIGYMYYSGSTYYNPSLKSRVTIFVDTSKNHFSLKLTSVTAADTAVYYCARDSYENYYGSGSLEPNYHHYNMDVWGQGTTVTVSS VL: DVQMTQSPSTLSASIGDRVTITCRASQSISGWLAWYQQRPGKAPKLLIYRASSLDFGVPSRFSGNGSGTEFTLTISSLQPDDFATYYCQQYHTYRTFGQGTKVEVK | binds |
| S728-430 (antibody, V domains shown) VH: EVQLVESGGGLIQPGGSLRLSCAASGFTVSSNYMSWVRQAPGKGLEWVSVIYSGGSTYYADSVKGRFTISRDNSKNTLYLQMNSLRAEDTAVYYCARTPRGSRRGAFDIWGQGTMVTVSS VL: not shown [S728-430, listing 2 of 2 here] | binds |
| S728-537 (antibody, V domains shown) VH: QVQLVQSGAEVKKPGASVKVSCKTSGYTFTGFYLHWLRQAPGQGLEWMGRINPNTGDTDYAQKFQGRVTMTRDTSISTAYMELSRLRADDTAVYYCARTPGQTRQLFVGTNVLDVWGQGTMVTVSS VL: DIQMTQSPSSVSASVGDRVTITCRASQGISSWLAWYQQKPGKAPKVLIFAASSLQSGVPSRFSGSGSGTDFTLTITSLQPEDFATYFCQQTNSFPPTFGGGTKVEIK [S728-537, listing 2 of 2 here] | binds |
| S728-1157 (antibody, V domains shown) VH: EVQLVESGGGLVQPGGSLRLSCAASGLLVSRNYMNWVRQAPGKGLEWVSIIYSGGSTFYADSVEGRFTISRDESKNTLYLQMNSLRTDDTAVYYCARDLSDYGGIDCWGQGTLVTVSS VL: YELTQPLSVSMALGQTARISCGGDNVGSQNVHWYQQRPGQAPVLVIYRDSNRPSGIPERFSGSKSGNTATLTISRAQAGDEADYYCQVWDSSTVAFGGGTKLTVL [S728-1157, listing 2 of 2 here] | binds |
| S728-1261 (antibody, V domains shown) VH: QVQLQESGPGLVKPSGTLSLTCAVSGGSISNNNWWIWVRQPPGKGLEWIGEIHHSGSTDYNPSLKSRVTISIDKSKNQFSLRLSSVTAADTAVYYCARKPEPYYYYYYMDVWGKGTTVTVSS VL: ETVLTQSPGTLSLSPGERATLSCRASQSVSSSYITWYQQKPGQAPRLLIYGASSRATGIPDRFSGSGSGTDFTLTISRLEPEDFAVYYCQQYRSPWGLTFGPGTKVDIK | binds |
